From US20240360203A1

Biological target: SARS-CoV-2 BA.4/5+K444T Spike on pseudovirus (SARS-CoV-2), P0DTC2
Test: cell-based or functional assay

B1: AB-1 (antibody, V domains shown)
VH: EVQLVESGAEVKKPGESLKISCKGSGYTFTRYWIGWVRQMPGKGLEWMGIIYPGDSDVRYSPSFQGHVTISADKSISTAYLQWNSLKASDTAMYYCARLPQYCSKGVCYRWFDPWGQGTLVTVSS
VL: EIVLTQSPSSVSASVGDRVTITCRASQGISSWLAWYQQKPGKAPKLLIYAASSLQSGVPSRFSGSGSGTDFTLTISSLQPEDFATYYCQQGHSFPYTFGQGTNLEIK
IC50, pseudovirus neutralization: 9.4 ng/mL
